These results are taken from publication PMC9953004, “Scandium-44 Radiolabeled Peptide and Peptidomimetic Conjugates Targeting Neuropilin-1 Co-Receptor as Potential Tools for Cancer Diagnosis and Anti-Angiogenic Therapy” (Biomedicines, 2023).

The target in the test is Recombinant human NRP-1 (neuropilin-1 co-receptor) (human) (UniProt O14786). The test is described as follows: ELISA; competitive; recombinant human NRP-1 coated on a 96-well plate (200 ng/well, overnight, 4 °C), blocked with 0.5% BSA in PBS; 50 µL compound in PBS (100, 50, 25, 12.5, 6.75 µM) plus 50 µL (400 ng/mL) human (bt)-VEGF-A165 in PBS with 4 µg/mL heparin; 2 h at room temperature; streptavidin-HRP, chemiluminescence; IC50 by nonlinear regression, mean ± SD of three experiments. A general note: An ELISA detects its analyte on a solid surface through an enzyme-linked reagent.
Sequence of Recombinant human NRP-1 (neuropilin-1 co-receptor) (human) (O14786 22-856): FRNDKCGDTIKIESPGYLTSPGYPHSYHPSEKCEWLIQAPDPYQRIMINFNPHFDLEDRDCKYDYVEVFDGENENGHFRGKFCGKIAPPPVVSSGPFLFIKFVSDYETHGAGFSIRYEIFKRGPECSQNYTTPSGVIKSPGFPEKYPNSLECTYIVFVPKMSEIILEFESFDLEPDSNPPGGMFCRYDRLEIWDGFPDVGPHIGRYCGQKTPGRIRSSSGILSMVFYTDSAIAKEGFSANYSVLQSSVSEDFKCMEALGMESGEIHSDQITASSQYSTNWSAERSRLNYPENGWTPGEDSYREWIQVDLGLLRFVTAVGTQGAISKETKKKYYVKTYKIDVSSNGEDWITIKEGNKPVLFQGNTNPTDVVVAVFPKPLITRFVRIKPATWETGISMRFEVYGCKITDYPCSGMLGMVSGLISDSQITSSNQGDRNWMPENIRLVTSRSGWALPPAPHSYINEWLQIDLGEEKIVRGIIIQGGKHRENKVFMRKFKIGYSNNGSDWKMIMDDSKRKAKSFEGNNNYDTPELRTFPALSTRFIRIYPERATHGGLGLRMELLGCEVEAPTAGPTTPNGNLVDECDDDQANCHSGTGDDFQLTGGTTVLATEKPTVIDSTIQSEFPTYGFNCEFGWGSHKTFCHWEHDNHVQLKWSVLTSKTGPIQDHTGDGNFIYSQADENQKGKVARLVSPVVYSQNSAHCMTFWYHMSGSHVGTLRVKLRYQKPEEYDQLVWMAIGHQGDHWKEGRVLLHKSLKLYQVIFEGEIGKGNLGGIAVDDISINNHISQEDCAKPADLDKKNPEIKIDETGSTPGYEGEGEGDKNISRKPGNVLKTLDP

As a reminder, the IC50 is the concentration at which inhibition is half-maximal. For ^DR7A-^DLys(DOTA-Ga) (peptide), the IC50 was over 100 µM. Take ^DR7A-^DLys(DOTA-Sc) (peptide): the 50% inhibitory concentration (IC50) was over 100 µM.
